Experimental data published in publication PMC9772344.
Positions count from the first letter of the chain named. In names and notes the source's numbering stands. Values belong to the binder of their own block, whether it stands above or below them.

Key:
Conditions in all cases: chain shown with the change; transfected HeLa cells; n = 3 per group; parent: est. 1.0; read off a plot
Orai1, Q96D31 = test: Co-IP (GLT-1 capture antibody, immunoblot for Orai1, band quantification)
[1] = molecular target: stromal-interacting molecule 1 (STIM1), Q13586; test: Co-IP (STIM1 capture antibody, immunoblot for GLT-1, band quantification)
[2] = molecular target: stromal-interacting molecule 1 (STIM1), Q13586; test: Co-IP (GLT-1 capture antibody, immunoblot for STIM1, band quantification)

Sequence of Orai1, Q96D31 (Q96D31 whole entry): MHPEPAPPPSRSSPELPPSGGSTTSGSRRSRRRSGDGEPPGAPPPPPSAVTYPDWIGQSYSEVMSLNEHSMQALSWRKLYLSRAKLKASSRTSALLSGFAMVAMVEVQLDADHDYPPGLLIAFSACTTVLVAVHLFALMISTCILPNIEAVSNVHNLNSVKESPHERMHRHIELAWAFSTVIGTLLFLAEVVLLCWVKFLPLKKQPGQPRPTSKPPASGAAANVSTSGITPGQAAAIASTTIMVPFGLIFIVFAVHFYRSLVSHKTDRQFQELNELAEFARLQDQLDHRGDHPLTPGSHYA
Sequence of stromal-interacting molecule 1 (STIM1), Q13586 (Q13586 23-685): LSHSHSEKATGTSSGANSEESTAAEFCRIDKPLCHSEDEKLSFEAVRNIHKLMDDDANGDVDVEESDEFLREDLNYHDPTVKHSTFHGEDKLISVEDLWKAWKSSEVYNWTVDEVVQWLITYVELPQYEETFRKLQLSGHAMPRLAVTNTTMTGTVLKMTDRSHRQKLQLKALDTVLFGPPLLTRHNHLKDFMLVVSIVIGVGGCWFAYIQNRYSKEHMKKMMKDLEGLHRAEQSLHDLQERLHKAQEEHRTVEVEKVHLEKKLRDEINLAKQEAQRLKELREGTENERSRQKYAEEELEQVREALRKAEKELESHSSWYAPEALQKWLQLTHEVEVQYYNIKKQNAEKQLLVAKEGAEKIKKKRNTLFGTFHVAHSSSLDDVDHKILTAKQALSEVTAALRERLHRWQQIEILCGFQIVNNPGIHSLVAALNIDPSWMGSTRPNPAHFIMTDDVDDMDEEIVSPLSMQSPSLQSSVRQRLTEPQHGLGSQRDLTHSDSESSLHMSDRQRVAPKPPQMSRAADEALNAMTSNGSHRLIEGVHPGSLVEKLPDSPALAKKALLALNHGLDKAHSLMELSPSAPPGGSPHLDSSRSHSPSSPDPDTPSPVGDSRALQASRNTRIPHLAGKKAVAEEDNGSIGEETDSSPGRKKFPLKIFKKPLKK

response (relative band intensity) (Orai1, Q96D31): 0.27
response (relative band intensity) [1]: 0.12
response (relative band intensity) [2]: 0.08
B1: glutamate transporter GLT-1 (excitatory amino acid transporter 2, EAAT2), WT plasmid, P43006 G82R; L85P (protein)
chain: MASTEGANNMPKQVEVRMHDSHLSSDEPKHRNLGMRMCDKLGKNLLLSLTVFGVILGAVCGGLLRLASPIHPDVVMLIAFPRDIPMRMLKMLILPLIISSLITGLSGLDAKASGRLGTRAMVYYMSTTIIAAVLGVILVLAIHPGNPKLKKQLGPGKKNDEVSSLDAFLDLIRNLFPENLVQACFQQIQTVTKKVLVAPPSEEANTTKAVISMLNETMNEAPEETKIVIKKGLEFKDGMNVLGLIGFFIAFGIAMGKMGEQAKLMVEFFNILNEIVMKLVIMIMWYSPLGIACLICGKIIAIKDLEVVARQLGMYMITVIVGLIIHGGIFLPLIYFVVTRKNPFSFFAGIFQAWITALGTASSAGTLPVTFRCLEDNLGIDKRVTRFVLPVGATINMDGTALYEAVAAIFIAQMNGVILDGGQIVTVSLTATLASIGAASIPSAGLVTMLLILTAVGLPTEDISLLVAVDWLLDRMRTSVNVVGDSFGAGIVYHLSKSELDTIDSQHRMQEDIEMTKTQSIYDDKNHRESNSNQCVYAAHNSVVIDECKVTLAANGKSADCSVEEEPWKREK

response (relative band intensity) (Orai1, Q96D31): 0.17
response (relative band intensity) [1]: 0.13
response (relative band intensity) [2]: 0.12
B2: glutamate transporter GLT-1 (excitatory amino acid transporter 2, EAAT2), WT plasmid, P43006 L85P (protein)
chain: B1 chain with R82G

response (relative band intensity) (Orai1, Q96D31): 0.22
response (relative band intensity) [1]: 0.15
response (relative band intensity) [2]: 0.15
B3: glutamate transporter GLT-1 (excitatory amino acid transporter 2, EAAT2), WT plasmid, P43006 G82R (protein)
chain: B1 chain with P85L
